In one assay the test system is ABP1. Description: DHFR-PCA on solid medium, bait ABP1 (Fig. 1B). In kind it is cell-based, Saccharomyces cerevisiae. Conditions: bait ABP1, label = prey; 2-4 replicates. The text has this:
Supplement 41467_2021_21873_MOESM8_ESM.xlsx, sheet "Fig1B" | column: medsize; medrep; Ratio; Score

In another assay the test system is Hua2. In words: Deep mutational scanning of Abp1 SH3, Abp1-Hua2 DHFR-PCA (DMS score). It counts as cell-based, Saccharomyces cerevisiae. Conditions: for ratio (log2 scale): HUA2_MTX2 (test) vs HUA2_S2 (reference); for ratio (log2 scale) / ratio (log2 scale) mean / frequency (reference condition) / frequency (test condition): amino acid mutation format; for ratio (log2 scale) / frequency (reference condition) / frequency (test condition): replicate 1, Fig. S3A-B; for ratio (log2 scale) mean: condition HUA2_MTX2; for ratio (log2 scale) mean / frequency (reference condition) mean / frequency (test condition) mean / frequency (log2 scale) (reference condition) mean / frequency (log2 scale) (test condition) mean: Fig. S3E; for frequency (reference condition): reference condition HUA2_S2; for frequency (reference condition) mean / frequency (log2 scale) (reference condition) mean: reference condition for HUA2_MTX2; for frequency (test condition) / frequency (test condition) mean / frequency (log2 scale) (test condition) mean: test condition HUA2_MTX2. As to the method:
Single site mutation libraries were generated by a PCR-based saturation mutagenesis method[50] as described below. The mutagenesis was carried out on the pUC19 plasmid containing the SH3 domain sequence of ABP1 flanked by its homology arms subsequently used in the CRISPR mediated genomic re-integration. We used oligos containing degenerate nucleotides (NNN) to carry out the mutagenesis at each codon of the domain sequence. In the first step of the two-step PCR procedure (short PCR step), an amplicon was generated with an oligo containing the degenerate codon which is positioned within the domain sequence, and another oligo lying outside Abp1 sequence in the plasmid. Short PCR step was carried out with the following settings: 5 min at 95 °C, 35 cycles: 20 s at 98 °C, 15 s at 60 °C, 30 s at 72 °C, and a final extension of 1 min at 72 °C. The amplicon generated in this step was used as a mega primer in the second step (long PCR step) to amplify the whole plasmid. Long PCR step was carried out with the following settings: 5 min at 95 °C, 22 cycles: 20 s at 98 °C, 15 s at 68 °C, 3 min 30 s at 72 °C, and a final extension of 5 min at 72 °C. The long PCR product was digested for 2 h at 37 °C with DpnI. The digestion product was then transformed into E. coli MC1061 competent cells. In order to obtain most of the 64 possible codons, we recovered ~1000 colonies from each plate to retrieve the plasmid single mutant libraries. Saturation mutagenesis was carried out in a codon-position-wise manner. Mutants at each position were stored separately. Library quality control was assessed by amplifying the purified plasmid DNA preparations by PCR followed by Illumina sequencing as described below. The genomic insertion of the mutant libraries (one library per amino acid position) was performed by targeting the stuffer sequence in the ABP1 SH3-deleted strain as described in the strain construction section. ABP1 SH3-deleted yeast competent cells were co-transformed with pCAS containing the stuffer-specific gRNA and PCR amplified ABP1 SH3 single position mutated libraries from the pUC19 preparations. As for the library generation, ~1000 colonies from each plate were retrieved. Glycerol stocks of yeast cells were kept for each position (58 different stocks corresponding to the 58 amino acid positions of Abp1 SH3). The stocks were also validated by Illumina sequencing (see below).
Liquid DHFR-PCA experiments were performed following the generation of the ABP1 SH3 single position mutated yeast strains and were performed in biological independent duplicates. An overnight culture was started in YPD + NAT by adding the same number of cells from each yeast mutant strain (master pool). Then, the master pool and Hua2-DHFR F[3] or Lsb3-DHFR F[3] preys strains were mixed in YPD (2:1) for mating and incubated for 8 h at 30 °C. Diploid cells were selected the first time by transferring the mixture in a YPD + NAT + HPH (OD 0.5) culture for 16 h at 30 °C. The next day, the first diploid selection was transferred in SC complete pH 6.0 + NAT + HPH at 0.5 OD and the culture was grown for 24 h at 30 °C. The validation of the yeast mutant libraries was done the next day with a fraction of the diploid cells (first DHFR-PCA experiment time point without PCA selection, reference condition S2) by amplifying ABP1 SH3 genomic sequence followed by Illumina sequencing as described in the section below. Following the selection, diploid cells OD was read using a TECAN Infinite F200 Pro, and dilutions to 0.1 OD in PCA selection media without agar in a 50 mL tube was done. Tubes were incubated at 30 °C for 72 h (second-time point of the DHFR-PCA experiment, first PCA selection). A fraction of the cells (5U OD) was collected for Illumina sequencing. The cells from the first PCA step were grown for a second PCA selection step using the same procedures. […]

This is an account of results in article PMC7954794, “Protein context shapes the specificity of SH3 domain-mediated interactions in vivo” (Nature Communications, 2021).

B1: YDL146W (protein, UniProt Q12342 1-491, looked up)
Protein LDB17: MILDPLSPNIENHTQDEIIEFWEKTESIANIPKENLDESHVNSSLVAYLKFATDSYKVFINTDRDLYRMSLILLESSLFEFKKEFCLSKLQSLLNIDLLEMNMKFIIVYILLCEAKKNVYSLEIMLKFQGFTVFYNTLYTQFAYLSKYGKERTVASKHQYNSNNSSTGTSLDSLDRSLTDIDLGIIDEMKQISTVLMDLLFQIMKYCKCVIANLQIVDDFFVYYMMESMRSDTMDDMFNNAEFKLLLALNEQYMMFAKEYDIENKVYKYLINGSVSRCFTELLLLKFNRASDPPLQIMMCKIIYLILTPRGDYSPMNFFYTNDLRVLIDVLIRELQNISEDEEVLRNTLLRVLIPLLKNTQLSKTHYRKDDLNKLLNYLSTLDNICVDSPALHEHQVTVALSRKCLQQIPWLETPSTPSDGGSSVSSNNTSRNSSIVALGTPDNQNILARKGHLYSNRELDVSAESLTKRKAKAPPPPPPPPPSRKCGTPK
For the molecule B1, in the assay with ABP1, the “medrep (log2 median colony size normalized to plate background, PCA score)” value is 3.631.

B2: YGL252C (protein, UniProt P32608 1-588, looked up)
Retrograde regulation protein …: MSTLSDSDTETEVVSRNLCGIVDIGSNGIRFSISSKAAHHARIMPCVFKDRVGLSLYEVQYNTHTNAKCPIPRDIIKEVCSAMKRFKLICDDFGVPETSVRVIATEATRDAINADEFVNAVYGSTGWKVEILGQEDETRVGIYGVVSSFNTVRGLYLDVAGGSTQLSWVISSHGEVKQSSKPVSLPYGAGTLLRRMRTDDNRALFYEIKEAYKDAIEKIGIPQEMIDDAKKEGGFDLWTRGGGLRGMGHLLLYQSEGYPIQTIINGYACTYEEFSSMSDYLFLKQKIPGSSKEHKIFKVSDRRALQLPAVGLFMSAVFEAIPQIKAVHFSEGGVREGSLYSLLPKEIRAQDPLLIASRPYAPLLTEKYLYLLRTSIPQEDIPEIVNERIAPALCNLAFVHASYPKELQPTAALHVATRGIIAGCHGLSHRARALIGIALCSRWGGNIPESEEKYSQELEQVVLREGDKAEALRIVWWTKYIGTIMYVICGVHPGGNIRDNVFDFHVSKRSEVETSLKELIIDDANTTKVKEESTRKNRGYEVVVRISKDDLKTSASVRSRIITLQKKVRKLSRGSVERVKIGVQFYEE
Take B2: in the assay on ABP1, the “medrep (log2 median colony size normalized to plate background, PCA score)” value came to 2.12.

B3: ABP1 001 P * (protein, UniProt P15891 2-592, looked up)
Actin-binding protein: ALEPIDYTTHSREIDAEYLKIVRGSDPDTTWLIISPNAKKEYEPESTGSSFHDFLQLFDETKVQYGLARVSPPGSDVEKIIIIGWCPDSAPLKTRASFAANFAAVANNLFKGYHVQVTARDEDDLDENELLMKISNAAGARYSIQTSSKQQGKASTPPVKKSFTPSKSPAPVSKKEPVKTPSPAPAAKISSRVNDNNDDDDWNEPELKERDFDQAPLKPNQSSYKPIGKIDLQKVIAEEKAKEDPRLVQKPTAAGSKIDPSSDIANLKNESKLKRDSEFNSFLGTTKPPSMTESSLKNDDDKVIKGFRNEKSPAQLWAERKAKQNSGNAETKAEAPKPEVPEDEPEGEPDVKDLKSKFEGLAASEKEEEEMENKFAPPPKKSEPTIISPKPFSKPQEPVKAEEAEQPKTDYKKIGNPLPGMHIEADNEEEPEENDDDWDDDEDEAAQPPLPSRNVASGAPVQKEEPEQEEIAPSLPSRNSIPAPKQEEAPEQAPEEEIEEEAEEAAPQLPSRSSAAPPPPPRRATPEKKPKENPWATAEYDYDAAEDNELTFVENDKIINIEFVDDDWWLGELEKDGSKGLFPSNYVSLGN
Take B3: in the assay with Hua2, the “ratio (log2 scale)” value is on record as -1.421 log2 scale, the “ratio (log2 scale) mean” value was -1.432 log2 scale, the “frequency (reference condition)” value is recorded as 0.001041 and the “frequency (reference condition) mean” value worked out at 0.0009397. In addition, in the assay with Hua2, the “frequency (test condition)” value is given as 5.39E-06 and the “frequency (test condition) mean” value came out at 2.69E-06.

B4: ABP1 001 P C (protein, UniProt P15891 2-592, looked up)
Actin-binding protein: B3 Actin-binding protein
Consider B4, for which, in the assay with Hua2, the “ratio (log2 scale)” value worked out at 2.7124 log2 scale, the “ratio (log2 scale) mean” value came out at 3.075 log2 scale, the “frequency (reference condition)” value came to 0.0005961 and the “frequency (log2 scale) (reference condition) mean” value is on record as -1.441 log2 scale. In the assay on Hua2, the “frequency (reference condition) mean” value was 0.0004649, the “frequency (test condition)” value was found to be 0.001896, the “frequency (log2 scale) (test condition) mean” value is listed as -1.435 log2 scale and the “frequency (test condition) mean” value is 0.001734.

B5: ABP1 001 P E (protein, UniProt P15891 2-592, looked up)
Actin-binding protein: B3 Actin-binding protein
In the case of B5, in the assay on Hua2, the “ratio (log2 scale)” value amounted to 2.627 log2 scale, the “ratio (log2 scale) mean” value is on record as 2.654 log2 scale, the “frequency (reference condition)” value is recorded as 0.0007975 and the “frequency (log2 scale) (reference condition) mean” value is -1.4398 log2 scale. In the assay with Hua2, the “frequency (reference condition) mean” value turned out to be 0.0006949, the “frequency (test condition)” value was determined as 0.002419, the “frequency (log2 scale) (test condition) mean” value is on record as -1.434 log2 scale and the “frequency (test condition) mean” value is recorded as 0.002135.

B6: YFR040W (protein, UniProt P43612 1-1002, looked up)
SIT4-associating protein …: MSFWPFGQNLNHSNINKILDEYFHVLHELERINPSVGKAIPAIFNNVQERGTSDSLDSIPEEYSHGDEVKTARGDQKSRFEKDDQQERYEKEEEERSMNSSESSTTSFSSGSTSKTDLDEEDISNATAPMMVTTKNLDNSFIERMLVETELLNELSRQNKTLLDFICFGFFFDKKTNKKVNNMEYLVDQLMECISKIKTATTVDLNNLIDYQEQQQLDDSSQEDVYVESDTEQEEEKEDDNNSNNKKRRKRGSSSFGNDDINNNDDDDDANEDDESAYLTKATIISEIFSLDIWLISESLVKNQSYLNKIWSIINQPNFNSENSPLVPIFLKINQNLLLTRQDQYLNFIRTERSFVDDMLKHVDISLLMDFFLKIISTDKIESPTGIIELVYDQNLISKCLSFLNNKESPADIQACVGDFLKALIAISANAPLDDISIGPNSLTRQLASPESIAKLVDIMINQRGAALNTTVSIVIELIRKNNSDYDQVNLLTTTIKTHPPSNRDPIYLGYLLRKFSNHLSDFFQIILDIENDANIPLHENQLHEKFKPLGFERFKVVELIAELLHCSNMGLMNSKRAERIARRRDKVRSQLSHHLQDALNDLSIEEKEQLKTKHSPTRDTDHDLKNNNGKIDNDNNDNDDESDYGDEIDESFEIPYINMKQNIKLRTDPTVGDLFKIKLYDTRIVSKIMELFLTHPWNNFWHNVIFDIIQQIFNGRMDFSYNSFLVLSLFNLKSSYQFMTDIVISDEKGTDVSRFSPVIRDPNFDFKITTDFILRGYQDSYKFYELRKMNLGYMGHIVLIAEEVVKFSKLYKVELISPDIQVILQTEEWQYYSEEVLNETRMMYSKILGGGSYIDDGNGNIIPQLPDNTTVLTPNGDASNNNEILDSDTGSSNGTSGGGQLINVESLEEQLSLSTESDLHNKLREMLINRAQEDVDNKNTENGVFILGPPEDKNSNSNINNTNHNSNNSNNNDNNDNNDNDNDNTRNYNEDADNDNDYDHE
In the case of B6, the “medrep (log2 median colony size normalized to plate background, PCA score)” value in the assay with ABP1 is listed as 2.847.
